Assays:
[1] = tested on: Jaks-STATS signal transduction pathway; assay: GAS-SEAP/U937 reporter assay for myeloid activity; type: cell-based; conditions: GAS-SEAP/U937 cells; 100 Unit/ml; positive control wells; 48 to 72 hr
Procedure: The following protocol is used to assess myeloid activity of a fusion protein (e.g. albumin fusion protein) of the present invention by determining whether the fusion protein proliferates and/or differentiates myeloid cells. Myeloid cell activity is assessed using the GAS/SEAP/Neo construct produced in Example 29. Thus, factors that increase SEAP activity indicate the ability to activate the Jaks-STATS signal transduction pathway. The myeloid cell used in this assay is U937, a pre-monocyte cell line, although TF-1, HL60, or KG1 can be used.
To transiently transfect U937 cells with the GAS/SEAP/Neo construct produced in Example 29, a DEAE-Dextran method (Kharbanda et. al., 1994, Cell Growth & Differentiation, 5:259-265) is used. First, harvest 2×10^7 U937 cells and wash with PBS. The U937 cells are usually grown in RPMI 1640 medium containing 10% heat-inactivated fetal bovine serum (FBS) supplemented with 100 units/ml penicillin and […] streptomycin.
Next, suspend the cells in 1 ml of 20 mM Tris-HCl (pH 7.4) buffer containing 0.5 mg/ml DEAE-Dextran, 8 ug GAS-SEAP2 plasmid DNA, 140 mM NaCl, 5 mM KCl, 375 uM Na2HPO4.7H2O, 1 mM MgCl2, and 675 uM CaCl2. Incubate at 37 degrees C. for 45 min.
Wash the cells with RPMI 1640 medium containing 10% FBS and then resuspend in 10 ml complete medium and incubate at 37 degree C. for 36 hr. […]

[2] = tested on: Jaks-STATS signal transduction pathway; assay: Jurkat:GAS-SEAP reporter assay for T-cell activity; type: cell-based; conditions: Jurkat:GAS-SEAP cells; 100 Unit/ml; positive control wells; 48 hrs
Procedure: The following protocol is used to assess T-cell activity by identifying factors, and determining whether a fusion protein (e.g. albumin fusion protein) of the invention proliferates and/or differentiates T-cells. T-cell activity is assessed using the GAS/SEAP/Neo construct produced in Example 29. Thus, factors that increase SEAP activity indicate the ability to activate the Jaks-STATS signal transduction pathway. The T-cell used in this assay is Jurkat T-cells (ATCC Accession No. TIB-152), although Molt-3 cells (ATCC Accession No. CRL-1552) and Molt-4 cells (ATCC Accession No. CRL-1582) cells can also be used.
Jurkat T-cells are lymphoblastic CD4^+ Th1 helper cells. In order to generate stable cell lines, approximately 2 million Jurkat cells are transfected with the GAS-SEAP/neo vector using DMRIE-C (Life Technologies)(transfection procedure described below). The transfected cells are seeded to a density of approximately 20,000 cells per well and transfectants resistant to 1 mg/ml genticin selected. Resistant colonies are expanded and then tested for their response to increasing concentrations of interferon gamma.
Specifically, the following protocol will yield sufficient cells for 75 wells containing 200 ul of cells. Thus, it is either scaled up, or performed in multiple to generate sufficient cells for multiple 96 well plates. […]

[3] = tested on: human monocytes; assay: Cytokine release from human monocytes (ELISA of culture supernatants); type: cell-based; conditions: human monocytes (1×10^6), 1 day incubation
Procedure: To evaluate the in vitro activity of Ckb1(G-28-N93) and Ckb1(G-28-N93) fused to human serum albumin, proteins produced by these constructs were incubated with human monocytes (1×10^6) for 1 day. Culture supernatants were collected and analyzed by ELISA for cytokine content.

[4] = biological target: T1, CCR1 (Homo sapiens, UniProt P32246); conditions: Detheux et al., J. Exp. Med. 192:1501-1508 (2000); cited from earlier work
T1 sequence (P32246 1-355): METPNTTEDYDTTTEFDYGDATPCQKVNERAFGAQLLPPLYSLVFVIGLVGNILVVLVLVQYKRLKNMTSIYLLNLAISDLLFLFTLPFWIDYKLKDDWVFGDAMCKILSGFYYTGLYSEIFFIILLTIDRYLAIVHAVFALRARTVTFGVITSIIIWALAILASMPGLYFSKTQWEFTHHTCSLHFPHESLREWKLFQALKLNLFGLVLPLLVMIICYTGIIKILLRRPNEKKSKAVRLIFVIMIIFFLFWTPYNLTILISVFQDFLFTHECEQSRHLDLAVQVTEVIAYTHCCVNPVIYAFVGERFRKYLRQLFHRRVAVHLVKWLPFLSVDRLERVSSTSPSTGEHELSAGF

[5] = tested on: monocytes; conditions: cited from earlier work
[6] = biological target: CCR5 (Homo sapiens, UniProt P51681); conditions: Detheux et al., J. Exp. Med. 192:1501-1508 (2000); cited from earlier work
[7] = biological target: T2, CCR3 (Homo sapiens, UniProt P51677); conditions: Detheux et al., J. Exp. Med. 192:1501-1508 (2000); cited from earlier work
T2 sequence (P51677 1-355): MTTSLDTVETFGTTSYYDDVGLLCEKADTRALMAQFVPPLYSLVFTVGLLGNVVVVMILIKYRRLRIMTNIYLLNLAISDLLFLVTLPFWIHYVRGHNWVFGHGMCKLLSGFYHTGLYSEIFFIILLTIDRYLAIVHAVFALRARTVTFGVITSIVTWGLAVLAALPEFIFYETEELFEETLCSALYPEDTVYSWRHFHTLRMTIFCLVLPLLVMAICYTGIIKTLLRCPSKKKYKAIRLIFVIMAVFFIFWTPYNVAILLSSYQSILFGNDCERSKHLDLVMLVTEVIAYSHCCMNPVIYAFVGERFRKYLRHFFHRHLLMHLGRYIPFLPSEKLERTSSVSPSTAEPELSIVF

Sequence of CCR5 (P51681 whole entry, species assumed): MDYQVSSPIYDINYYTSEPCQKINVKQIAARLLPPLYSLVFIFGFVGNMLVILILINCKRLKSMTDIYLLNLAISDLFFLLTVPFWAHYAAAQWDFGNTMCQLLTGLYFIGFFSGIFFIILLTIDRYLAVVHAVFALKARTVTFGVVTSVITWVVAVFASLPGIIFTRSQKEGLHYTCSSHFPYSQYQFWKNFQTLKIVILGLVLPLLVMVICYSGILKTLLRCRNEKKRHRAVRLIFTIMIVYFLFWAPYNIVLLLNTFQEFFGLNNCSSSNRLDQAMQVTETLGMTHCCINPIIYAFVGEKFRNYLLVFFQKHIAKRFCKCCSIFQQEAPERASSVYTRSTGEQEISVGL

B1: IFN-g: IFN family ligand; positive control known to activate Jurkat T cells and U937 cells (protein, UniProt P01579 24-161, looked up)
Interferon gamma: QDPYVKEAENLKKYFNAGHSDVADNGTLFLGILKNWKEESDRKIMQSQIVSFYFKLFKNFKDDQSIQKSVETIKEDMNVKFFNSNKKKRDDFEKLTNYSVTDLNVQRKAIHELIQVMAELSPAAKTGKRKRSQMLFRG
[1]
  induction (SEAP reporter activity): Over 30 fold
[2]
  induction (SEAP reporter activity): Over 30 fold

B2: Ckb1(G28-N93): Ckb1 polypeptide, residues G28-N93, not fused (protein)
chain: GPYHPSECCFTYTTYKIPRQRIMDYYETNSQCSKPGIVFITKRGHSVCTNPSDKWVQDYIKDMKEN
[3]
  release of IL-1β: induced release
  release of IL-6: induced release
  release of TNF-alpha: induced release

B3: Ckb1: human chemokine beta 1; mature form of 74 amino acids, amino acids 1-74 of SEQ ID NO:2 (protein, listed as Homo Sapiens)
chain: MKISVAAIPFFLLITIALGTKTESSSRGPYHPSECCFTYTTYKIPRQRIMDYYETNSQCSKPGIVFITKRGHSV
[4]
  agonism / activation of CCR1: activates CCR1 at high (supraphysiological) concentrations
[5]
  activation of monocytes: weak activator

B4: Ckb1 [9-74]: N-terminal deletion variant of Ckb1 consisting of amino acids 9-74 of SEQ ID NO:2 (Detheux et al.) (protein, listed as Homo Sapiens)
chain: PFFLLITIALGTKTESSSRGPYHPSECCFTYTTYKIPRQRIMDYYETNSQCSKPGIVFITKRGHSV
[4]
  agonism / activation of CCR1: potent agonist
[6]
  agonism of CCR5: potent agonist
[7]
  agonism of CCR3: potent agonist

Source: patent US20030143191A1, “Chemokine beta-1 fusion proteins” (priority 2001, published 2003)
